Results published in a protein production outcome set (Wang et al. 2014).

Test: label from the status in PepcDB records

MRAILILLDGLGDRASEILNNKTPLQFAKTPNLDRLAENGMCGLMTTYKEGIPLGTEVAHFLLWGYSLEEFPGRGVIEALGEDIEIEKNAIYLRASLGFVKKDEKGFLVIDRRTKDISREEIEKLVDSLPTCVDGYKFELFYSFDVHFILKIKERNGWISDKISDSDPFYKNRYVMKVKAIRELCKSEVEYSKAKDTARALNKYLLNVYKILQNHKINRKRRKLEKMPANFLLTKWASRYKRVESFKEKWGMNAVILAESSLFKGLAKFLGMDFIKIESFEEGIDLIPELDYDFIHLHTKETDEAAHTKNPLNKVKVIEKIDKLIGNLKLREDDLLIITADHSTPSVGNLIHSGESVPILFYGKNVRVDNVKEFNEISCSNGHLRIRGEELMHLILNYTDRALLYGLRSGDRLRYYIPKDDEIDLLEG
protein production: failed

SQSLKPEPFGRRAQAVETNKTLHEMKTRFLLFGETNQGCQIRINHPDTLQECGFNSSLPLVMIIHGWSVDGVLENWIWQMVAALKSQPAQPVNVGLVDWITLAHDHYTIAVRNTRLVGKEVAALLRWLEESVQLSRSHVHLIGYSLGAHVSGFAGSSIGGTHKIGRITGLDAAGPLFEGSAPSNRLSPDDANFVDAIHTFTREHMGLSVGIKQPIGHYDFYPNGGSFQPGCHFLELYRHIAQHGFNAITQTIKCSHERSVHLFIDSLLHAGTQSMAYPCGDMNSFSQGLCLSCKKGRCNTLGYHVRQEPRSKSKRLFLVTRAQSPFKVYHYQLKIQFINQTETPIQTTFTMSLLGTKEKMQKIPITLGKGIASNKTYSFLITLDVDIGELIMIKFKWENSAVWANVWDTVQTIIPWSTGPRHSGLVLKTIRVKAGETQQRMTFCSENTDDLLLRPTQEKIFVKCEIKSKTSKRKIR
protein production: failed

MGHHHHHHSHSSFQTMDQMVSNMRNYMQKLERNFGQLSVDPNGHSFCSSSVMTYSKIGDEP
protein production: failed

MSEFTRVFNYKIKLIIAISLFFTQLISANASVEVNISVEQPEHHLANVELKFEQVNESKVNFYLPTWRTGRYETLNLANGIREFIAQDSQGNVLSWHKIDKNTWQVSDAKNKKITLTYQVYANQLAKRTRHIDDSHAFLDSSAVVMYSQASRSSEHIVQLSVPKLWKSFSGLESGNNSHQFIAHDYDQLVDSPIESGINEHYQFSVDNRQYELVIWGEGNYDSAKMVKDLQILVKQSKHVWQGYPFKRYVFMVHATSGARGATEHVNSTIIQRSRFKFSTRKDYLSFIAVAAHEFVHTWNVKQYRPKGIVPYDYQQENYSNLLWLVEGSTSYLQYQLLLRGNLMTTDEFFTALAKRITAHAHKPGKESQSVAQASFDAWISEGGDYGNNHSVNIYSEGFLASWLLDFDILAKTALSKSYRNAHNQLYQQHRLPKGYDEQDVLSILEQITGDDYQVWWQKNIQGTTKINFNRLLAKAGLKMSYAKNVKDKSSEQSKVWTGLKTKLDNHDLIVSSVEKNSPAWDAGLTTEDVIVAIDGLRLLDNELDNRLKDFKPKQTITVTYFRRDKLITSRLKLAAIPKNKLKIIPIAKASVEQKAFFKAWMGVDFPEKK
protein production: failed

MAANDRAAAPGKSGGSAGADGLMRASLSAVAPGTSLRDGLERVLRGNTGGLIVLGSDKTVESMCTGGFVLDVEFTATRLRELCKLDGGIVLSSDLSKILRAGVQLLPDPTIPTEETGTRHRTADRVSKQVGFPVVSVSQSMRLIALYVDGQRRVLEDSAAILSRANQALATLERYKLRLDEVAGTLSALEIEDLVTVRDVSAVAQRLEMVRRIATEIAEYVVELGTDGRLLALQLDELIAGVEPERELVVRDYVPEPTAKRSRTVDEALAELDKLSHAELLELSTVARALGYTGSPETLDSAVSPRGFRLLAKVPRLPGAIIDRLVEHFGGLQKLLAASVDDLQTVDGVGEARARSVREGLSRLAESSILERYV
protein production: not failed

MLSRILEKYRENGIQGIVLALISRFPGVRAVCVYYVYRLPFDKLVRKQLSVGNLKVVQVKSDSMGDLIRVQDKPDIFGERFQMGHYGFVAYVNNDPVAYLWGQEGPVHVERRFGFEVPIKDNQVFYYDSYTIPEWRKSGVGRALIQESIDFFKNGLGKSELIAIIETGNLVSQKTYERMGFVREAMHIHLDIIGKKINKQLARMVTQ
protein production: failed

MIILSFYKLLERVICVHSITTYWWKYYLASFFSILVIGIVISSLNINIPYFFLIQIGLVFSLWYLISPIIMILVFKMRRAPQDVTFMVEDLSKKYNVKLSKVYIINDNFLNAFAFGNIIFRGIAVTSPLYESLVQEELAAVLSHEIAHIKNYDPEVMLLTIFSINSIYAALIYYLPLVSLFFLIIYFVILLPSVFYVHRKIEKRADLTAVKVNPDITYWLESSLIKIGYLSRSIPTNMLRYVPPIQIFLAKEFIVNHIVDEKSVLSFRTHPSLKERLLYLSQYEKQKMYYI
protein production: failed

MGVVERAIAPSVLAALADTPVVVVNGARQVGKTTLVARLDYPGSSEVVSLDDVANRDAARDDPRAFVSRPVDTLVIDEAQLEPGLFRAIKAEVDRDRRPGRFLLTGSARLLSAPDMADALVGRVEIIELWPFSQGERAGIADGFVDALFTAPRELIHGSDMRRADLVDRIATGGFPDIVARSPSRRRAWFDNYLTTATQSVIREISPIERLAEMPRVLRLCAARTGAELNVSALANDLSIPARTTAGYLALLEAAFLIHRVPAWSTNLSRKVIRRPKLVVSDSGLACHLLGVTGATLDRPGRPLGPLLETFVANEIRKQLTWSTERPSLWHFRDRGGAEVDLVLEHPDGRVCGIEVKATSTPRAEDLRGLRYLAERLDDRFQFGVLLTAAPEATPFGPTLAALPVSTLWAG
protein production: failed

ESLQQVVMAYFGVQFKSEQKAIALKAMQHIVQSFSLDNGPQNHDITHHTDNQGYENYIVVGYWRDPGAYCRWFRSTEVSHWWDSDERLNDGIGYFREIVIPRADQFETLYAFKEDLPGVGAVMDDISDDIQEHGYWGSARERF
protein production: not failed

KMPSPYSHKEFVKEIAPTAQKLSKIYGVRSSIIIGQAALDSHFGSTLLASKYHNLFSIEASPGQGAVRLKSHEYKNGRWQEVTNRYLVYESWKESLYDYMAILHGNKIWDKALYTTMMTSSGYKTVARALQAAGFNSDPNYADKLIAVIEENNL
protein production: not failed

SSNYPRCWNCGGPWGPGREDRFFCPQCRALQAPDPTRDYFSLMDCNRSFRVDTAKLQHRYQQLQRLVHPDFFSQRSQTEKDFSEKHSTLVNDAYKTLLAPLSRGLYLLKLHGIEIPERTDYEMDRQFLIEIMEINEKLAEAESEAAMKEIESIVKAKQKEFTDNVSSAFEQDDFEEAKEILTKMRYFSNIEEKIKLKKIPL
protein production: failed

MRVSCLSLPWHTPKALLHETITQTYLLWHIVLEHMDIVIVGAGRVGSRTARVVTNEDHAVTVIEQDYDRAERARTEGFDVVEGDGTSEDTLLDAGIDTADAIGALTSDLNTNFIACMVGNHHDCRTVLRIDEDYREDIYRKYADEVDEIVYPERLGAIGAKNALLGGNVTAIADLAEHLQVVQLTVTDEAPMRGYSISELELPAGARLLAFGKHDASLALPLPSETLETGDRIAVLAEFDTLDSVRQILVGNAPPTEVA
protein production: failed

WRQRDEAEFTGVDDIPVRFVRFRAQHHDRVVVICPGRIESYVKYAELAYDLFHLGFDVLIIDHRGQGRSGRLLADPHLGHVNRFNDYVDDLAAFWQQEVQPGPWRKRYILAHSMGGAISTLFLQRHPGVCDAIALTAPMFGIVIRMPSFMARQILNWAEAHPRFRDGYAIGTGRWRALPFAINVLTHSRQRYRRNLRFYADDPTIRVGGPTYHWVRESILAGEQVLAGAGDDATPTLLLQAEEERVVDNRMHDRFCELRTAAGHPVEGGRPLVIKGAYHEILFEKDAMRSVALHAIVDFFNRHN
protein production: failed

MDTNYKMLYEKYEKLKNEFSTYQNFAETQIQRMNGKNTELEKKLDILTNVIEVSKYINSNISDDNLVPMINDMIIGILGVTYSTIYLVEDDEKLIVKASNVMDNYDIIVNPVFSTFSDNRPIVINSKEPLFKEFKNKLKVHSIIGVPITLRDNFRGYIIVEHTLYDFFSHGHIKFISSIANQIAIAIENSFLYKKVKESSIKDPFLGIYNRKHFFDMIEGKVAKDSRRSFAIVMLDIDHFKSFNDSYGHQFGDEVLIQTAKILEQSIGEKDEVARYGGEEIVLYLNDAQSKEKVFKTVDGIRASLSNNSVRHGGIEKRVTASFGISYYPQNGETVEKVVSVADAMLYEAKNSGRNKVVSSL
protein production: failed

MQYIFSIISGIIVGFSLGLIGGGGSILAIPLLIYFVGIKNPHLVIGTTALAVGINALINVYSHLRKKNVSLRTGAIFTVFGILGVLLGTTLGLITPGGKLLFLFSFLMIVIGAYMFITKCKTCKNYDAIPKKNNNDDPPDPPKKGLWQKIKLEVFGVLAGFASGYFGIGGGFLIVPALLYSADITMNLAVGTSLMSVGTFGLVTALRYGIAGKVLVTIALLYVLGGIFGGYAGAKLSSSMKRSTLRRFFSLIIIVVGIYMAIESFSAVF
protein production: failed

MTHTITIVGLGNYGIDELPLGIYRFLEKESKVYARTLNHPVINTLKKEIEFESFDSIYEAHDRFEDVYEAIVTSLIELAQSEDIVYAVPGHPRVAETTTVKLLEYSHFNKDISVKVLGGKSFIDDIFEAVDVDPNDGFTLLDGTSLKESALNVRTNTVITQVYSVMIAADLKLTLMERYPDDFNVKIITGSHSDGAHVIECPLYEIDRYDDYFNNLTSLFIPKINEDTLLYQDFDYAVQTIDLLVDNEKGCPWDKVQTHDSLKRYLLEETFELFEAIDNEDDWHMIEELGDILLQVLLHSSIGKKEGYIDIKEIIESLNTKMIHRHPHIFGNAHVTSQEDLKDIWSRAKEKEGKVPRVKFEKVFADHFLKLYDKTKNRQFDEDDLKQFLQQGEKNS
protein production: failed

AEDPILRAIPENAFDGIAVTDAGGHVVYANSTYLALTGAATMQDVRPVERVFIGNPDVSEAVFRLLKAAREGRRLQEEVRVAGADGTQGRWMRLRVRPLGTSKREARQTVWSIADITRDRERQEDVFQTLQHAIEYLDHAPCGFFSVNPAGNLVYVNATLANWLDH
protein production: failed

MVIYDLHESTYKQEVYCNIPDATSWSFPNGVLIKVVRGCWILYEKPHFRGQKCVLEEGEKVLNRDWILQNRRHPQRNFILGSLKRVLKDCSIPEIELFPQSDPACCPVYIQRAVPNLEELNISKSVSFTVKSGVWLAYPDINFKGQATVLEEDHGLFEISTAEMKSLHPLQMGGLKVEMPMNLKVIIYEKPHFHGQAKEFSEHIDSVPNFLKNNGDFHRIGSIRVIGGVWVAYEKEHFKGQQFLLEEGDFEDSNACGALSSPILSFRYLQANFIESSVTLFESDLESGKFIDITNQEISDLEEIGFGSKTRSIHVKSGVWVAYQQKFFCGEQYILEKGKYKCFFDWGGSNNIIMSIRPIQLEPLGINEPPHLLKAFSKPGFQGECIDFTEETSDLTPLMPCSFKVLRGCWLLYYQEDMFVNHCVLEEGLYADLTSCGCPASKVKSLKPIDYVFEEPSISLFALEHCEGRELHLEEAVNSVLNKDLHFYTQSVWVKSGLWIAYEGSNFLGRQILLRPNEIPNWTAFSRWKTIGSLRPMKQPAVYIRIKNRAQGEYLTVTGSLADTRATSVCISPYSGKHTQIWYYCRGLFKSKASDTCLDVIGGRDTPGAKVALWTEHGQFRQKWRLNKNGTISSYLSDQLVLDVKGGNYCDKTHVIVNQPLEGEETQKWDIEIL
protein production: failed

TPTEGLTIGDKAPTFTICGEKQLIDLKDLRGKYVLLSFWASYDALSRMQNATLNHAVAQADNVEMVSVSFDEYKSIFNETIKKDQISTSNCFVELAGVSSDLYQTYRLKRGFKNFLLDENGVIVAKDVTVSELSS
protein production: failed

MLLTATLLGLIAALGILDGRLLGVSMIDRPLVMCALTGLVCGNLHEGILIGATLELIFLGNVAIGAAVPPDVVTGSVLATAFSIMSGRGPEAALTIAIPISMLAQTLGVLVRVVNARFGHMADRYAAQGNTRMVAVMHLGGPTLLYFLSGFLPVFFAILLGSAAVTWFLDAIPAFITNGLVVASKILPALGFALLISMMLSSKLMPYLGLGFLIAAYTKLDIIAIALFAVVLAFIISQFLNTSQQEG
protein production: failed
